In the nanobody polyreactivity screen of Harvey et al. (2022):

Assay: yeast display, Sf9 membrane polyspecificity reagent, FACS + sequencing; frameworks hold sequencing errors
Method in brief: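 Nanobodies came from a synthetic yeast display library in Saccharomyces cerevisiae BJ5465, induced with galactose for 36–48 hours and stained for 1 hour at 4 °C with 10% biotinylated, detergent-solubilized Sf9 membrane reagent. Cells were enriched on streptavidin microbeads and then FACS-sorted, with low and high (top ~1%) gates set on anti-HA fluorescence for expression and streptavidin fluorescence for reagent binding. Each polyreactivity label reflects the gate a clone came from. Genes were amplified by colony PCR, sequenced by MiSeq 2 × 250 and filtered by CDR length.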

| Sequence | polyreactivity (PSR sort gate) |
| --- | --- |
| QVQLVDSGGGLVQAGGSLRLSCAASGRIFRYYAMGWSRQAPGKERELVARITNGAITNYADSVKGRFTISRDNAKNTLYLQRNSLKPEETAVYYCAATQNLYRCGYWGQGTQVTVSS | high polyreactivity |
| QVQLVDSGGGLVQAGGSLRLSCAASGRIFWHNAMGWYRQAPGKERELVAAITGGGSTYYADSVKGRFTMSRVNAKNTVYLQKNSLIPEDTAVYYCATLGSLRYYWPGYDYWGQGTQVTVSS | low polyreactivity |
| QVQLVDSGGGLVQAGGSLRLSCAASGRIFYAYDMGWYRQAPGKERELVADITSSGSTNYADSVKGRFTISRDNAKNTVYLQMNSLKPEDTAVYYCNTEPSGYESGYWGQGTQVTVSS | low polyreactivity |
| QVQLVDSGGGLVQAGGSLRLSCAASGRIFYFNAMGWYREAPGKERELVAAISKSGGSTYYADSVKGRFTISRDNAKNTVYLQMNSLKPEDTAVYYCAAGFWYYSYPTLYEYGYWGQGTQVTVSS | low polyreactivity |
| QVQLVDSGGGLVQAGGSLRLSCAASGRIFYSYAMGWYRQAPGKERELVAAISRSGGRTYYADSVKARFTISRDNAKNTVYFQMNSLKPEDTAVYYCAADGRVGEEEYWGQGTQVTVSS | high polyreactivity |
| QVQLVDSGGGLVQAGGSLRLSCAASGRNFARYSMGWYRQAPGTERELVAAISWCGTSTYYADSVKGRYTISRDNAKNTVYLQMNSLKPEDTAVYYCAATYLYRDQPKWGGFAYTYGHWGQGTQVTVSS | high polyreactivity |
| QVQLVDSGGGLVQAGGSLRLSCAASGRTFGVYAMGWYRQAPGKERELVAVINRSGGSTYYADSVKGRFTISRDNAKNTVYLQMNSLKPEDTAVYYCAARVTSHMYYWGQGTQVTVSS | high polyreactivity |
| QVQLVDSGGGLVQAGGSLRLSCAASGRTFHKYAMGWYRQAPGKERELVAAISNGGRTYYADSVKGRFTISRDNAKNTLYLQMNSLKPEDTAVYYCNADRTWKGRQYDYWGQGTQVTVSS | high polyreactivity |
| QVQLVDSGGGLVQAGGSLRLSCAASGRTIGFYAMGWYRQAPGKERELVAAINRSGDSTYYADSVKGRFTISRDNAKNTVYLQMNSLKPEDTAVYYCAASYGYRYEYWGQGTQVTVSS | high polyreactivity |
| QVQLVDSGGGLVQAGGSLRLSCAASGRTSRRYAMGWYRQEPGKERELVAAIRGSGGSTYYADSVKGRFTISRDNAKNTVYLQMNSLKPEDTAVYYCAARSPRASGNSDYWGQGTQVTVSS | high polyreactivity |
| QVQLVDSGGGLVQAGGSLRLSCAASGRTYFWNAMGWYRQAPGKERELVAAITWSGGSTYYADSVKGRFTISRDNAKNTVYLQMNSLKPEDTAVYYCAAVVSDYVWRYEYWGQGTQVTVSS | low polyreactivity |
| QVQLVDSGGGLVQAGGSLRLSCAASGSIFAYYTIGWYRQAPRKERELVAAITSGGSTNYADSVKGRFTISRDNAKNTVYLQMNSLKPEDTAVYYCAVQGSRYSYRYGYRFRTMDYWGQGTQVTVSS | high polyreactivity |
| QVQLVDSGGGLVQAGGSLRLSCAASGSIFFENDMGCYRQAPGKEREFVAAISLSSTSTYYADSVKGRFTISRDNAKNTVYLQMNSLKPEDTAVYYCAADAIFGWPTFDFWGQGTQVTVSS | low polyreactivity |
| QVQLVDSGGGLVQAGGSLRLSCAASGSIFLLYVMGWYRQAPGKERELVAAISSGGSTNYADSVKGRFTISRDNAKITVYLQMNSLKPEDTAVYYCNAVAGPQGVKLYDYWGQGTQVTVSS | low polyreactivity |
| QVQLVDSGGGLVQAGGSLRLSCAASGSIFPRYAMGWYRQAPGKERELVASISASGGSTYYADSVKGRFTISRDNAKITVYLQMYSLKPEDTAVYYCAKADRTGWLDGDYWGQGTQVTVSS | low polyreactivity |
| QVQLVDSGGGLVQAGGSLRLSCAASGSIFRYKAMGWYRQAPGKERELVAAISWSGGRTYYADSVKGRFTISRDNAKNTVYLQMNSLKPEDTAVYYCAAAWYSSSRYQGIYRFAYWGQGTQVTVSS | high polyreactivity |

| Sequence | polyreactivity (PSR sort gate) |
| --- | --- |
| QVQLVDSGGGLVQAGGSLRLSCAASGSIFSVNAMGWYRQAPGKERQLVAAISVRGGRTYYADSVKGRFTISRDNAKNTVYLQMNSLIPEDTAVYYCATRISTVGRYDYWGQGTQVTVSS | high polyreactivity |
| QVQLVDSGGGLVQAGGSLRLSCAASGSIFVGNAMGWYRQAPGKERELVAAISWRGGRTYYADSVKGRFTISRDNAKYTVYLQMNSLKPEDTAVYYCATVKARDYGYWGQGTQVTVSS | high polyreactivity |
| QVQLVDSGGGLVQAGGSLRLSCAASGSIFYVNAMGWYRQAPGKERELVASITQSGGSTYYADSVKRRFTISRDNAKNTVDLQMNILKPEDTSVYYCNADIHVYPTRTRYYYWGQGTQVTVSS | low polyreactivity |
| QVQLVDSGGGLVQAGGSLRLSCAASGSIIYDYPMGWYRQAPGKEREFVASIDWRGDSTYYADSVKGRFTNSRDNAKNTVYLQMNRLKPEDTAVYYCAADRSYQYYFYEDYGYDYWGQGTQVTVSS | low polyreactivity |
| QVQLVDSGGGLVQAGGSLRLSCAASGSIYGYYAMGWYRQAPGKELVLVAVITSGATTNYADSLKGRFSISRDNAKNTGYLQMNSLKPEDTAVYYCAARPQVKRGRYGYWGQGTQVTVSS | low polyreactivity |
| QVQLVDSGGGLVQAGGSLRLSCAASGSSFYISAMGCYRQAPGKERELVAAITNAGSTKYADSVKGRFTISRDNAKNTVYLQMNSLKPEDTAVYYCAAVTFSYDGYDYWGQGTQVTVSS | low polyreactivity |
| QVQLVDSGGGLVQAGGSLRLSCAASGSTFPSNAMGWYRQAPGKERELVASIDRGGSTNNADSVKGRFTISRDNAKNTVYLQMNRLKPEDTAVYYCAAKRWPYWDISVYYWGYDYWGQGTQVTVSS | low polyreactivity |
| QVQLVDSGGGLVQAGGSLRLSCAASGSTFRYNVMGWYRQAPGKEREMVATISYSGGSTNYADSVKGRFTISRDNAKNTVYLPMNSLKPEDTAVYYCAARYLYPFYRYWWYDYWGQGTQVTVSS | high polyreactivity |
| QVQLVDSGGGLVQAGGSLRLSCAASGSTFRYYAMGWYRQAPGKEREFVAAITRSGGSTYYADSVKGRFTISRDNAKNTVYLQMNSLKPEETAVYYCNARPSASSRKKLERYYWGQGTQVTVSS | low polyreactivity |
| QVQLVDSGGGLVQAGGSLRLSCAASGSTFTYYAMGWYRPAPGKERELVASITTSGGDTNYADSVKGRFTISRDNAKKTVYLQRNSQKPEDTPLYYCNTTTDQHYGYCAAADADRKYDYWGQGTQVTVSS | low polyreactivity |
| QVQLVDSGGGLVQAGGSLRLSCAASGSTIVYYAKGWYRHAPGKERELVAVISDDGGTYYADSVKGRFTISRDNAKNTVYFQMNSLKPEDTAFYYCAKDYYGGAYYWYNDRSGDYWGQGTQVTVSS | low polyreactivity |
| QVQLVDSGGGLVQAGGSLRLSCAASGSTLVYKDMGLYRQAPGKEREFVAAIRSNDGSTYYADSVKGRFTISRDNAKNTVYLQMNSLKPEDTAVYYCAKGRYAYSIWDDYWGQGTQVTVSS | low polyreactivity |
| QVQLVDSGGGLVQAGGSLRLSCAASGSTSQKNAMGWYRQAPGKERELVAAISSGGSTYYADSVKGRFTISRDNAKNNVYLQLNSLKPEDTAVYNCAAKDLRGLGYWGQGTQVTVSS | high polyreactivity |
| QVQLVDSGGGLVQAGGSLRLSCAASGYIDGTYAMGWYRQAPRKERDLVASISSSGGSTYYADSVNGRFTISRDNAKNTVYLQMNSLKPEDTAVYYCNAERKIIAYLWWYDYWGQGTQVTVSA | low polyreactivity |
| QVQLVDSGGGLVQAGGSLRLSCAASRNAMGWYRQAPGKERELVGAISFRGGSTYYADSVKGRFTISRDNAKNTVYLQMNSLKPEDTAVYYCAKVQHHDYEGRGFPDAADGYWGQGTQVTVSS | low polyreactivity |
